Assays:
rβ-Casein = molecular target: T1, rβ-Casein (mouse, UniProt P10598); test: competitive ELISA: 4D12G1 pre-incubated with rising rβ-casein, then added to plates coated with rhAMHR2-ED
T1 construct: recombinant; also called recombinant mouse β-casein; recombinant β-casein
Method: The specificity of the mAbs was determined by competitive ELISA. Briefly, mAbs were incubated with increasing concentrations of rhAMHR2-ED in liquid phase PBS containing 0.02% Tween-20 (Bio-Rad) for 24 hours at 4° C. The antigen-antibody mixtures were added to the 96-well Maxisorp microtiter plates (Corning Life Sciences, Tewksbury, Mass.) pre-coated with 4 μg/ml rhAMHR2-ED followed by blocking with 1% BSA (Sigma-Aldrich). Recombinant mouse β-casein was used as the specificity control. Wells were then incubated with a secondary anti-mouse IgG conjugated with horseradish peroxidase (HRP; MilliporeSigma, Burlington, Mass.) followed by addition of 2,2′-Azino-bis(3-ethylbenzothiazoline-6-sulfonic acid) diammonium salt (ABTS) substrate (Sigma-Aldrich). Optical density was determined by absorbance at 405 nm.

17-32 = molecular target: T2, 17-32; test: direct ELISA on plated overlapping 16-mer peptides of AMHR2-ED, 4D12G1 as primary antibody
T2 construct: overlapping 16-mer of human AMHR2-ED; also called p17-32; AMHR2-ED 17-32 16-mer peptide
T2 peptide: GSTKTLGELLDTGTEL
Method: (§1) Competitive ELISAs were used to determine the AMHR2-ED sequence recognized by the 4D12G1 mAb. A set of overlapping 16-mer peptides spanning the entire 132 amino acid sequence of human AMHR2-ED was generated. Each peptide shifted by one amino acid and all cysteine residues were replaced by serine to avoid disulfide bond formation (Thermo Fisher). Individual 16-mer peptides were plated in solid phase in microtiter wells, increasing concentrations of each 16-mer peptide were incubated with the 4D12G1 mAb in liquid phase, and ELISAs were performed as described above. The binding site of the 4D12G1 mAb was confirmed by competitive ELISA using overlapping peptides containing alanine substitutions for each amino acid spanning the immunoreactive region of AMEIR2-ED. The substituted peptides were used in liquid phase with the 4D12G1 mAb to determine binding inhibition to rhAMHR2-ED in solid phase. The AMHR2-ED binding sequence of the 4D12G1 mAb and the critical AMHR2-ED residues for such binding were confirmed by SPOT peptide arrays. Peptides spanning the AMHR2-ED 9-40 immunoreactive region and ranging from 4-16-mers in length were synthesized >90% pure on cellulose membranes (JPT Peptide Technologies, Berlin, Germany), treated overnight with blocking buffer (Thermo Fisher), followed by treatment with the 4D12G1 mAb at 1.0 μg/ml for 3 hours at room temperature, followed by three washes with PBS containing 0.01% Tween-20 (Bio-Rad). The membranes were then treated with a 1:10,000 dilution of an HRP-conjugated rabbit anti-mouse IgG (MilliporeSigma) followed by three washes with PBS containing 0.01% Tween-20 (Bio-Rad). Bound antibody was detected using the HyGLO chemiluminescence system (Thomas Scientific).
(§2) An overlapping series of 16-mer peptides spanning the entire 132 amino acid sequence of human AMHR2-ED (FIG. 3A) with moving single amino acid shifts were plated for direct ELISA testing using the 4D12G1 mAb as primary antibody. […] To determine amino acids recognized by the 4D12G1 mAb, an overlapping series of peptides spanning the immunoreactive sequence comprising AMHR2-ED 13-30 were synthesized with alanine substitutions at each N-terminal residue or with glycine substitutions for any native N-terminal alanine.

12-27 = molecular target: T3, 12-27; test: as above
T3 construct: overlapping 16-mer of human AMHR2-ED; also called p12-27; AMHR2-ED 12-27 16-mer peptide
T3 peptide: APGVRGSTKTLGELLD
Method: as §1, §2

14-29 = molecular target: T4, 14-29; test: as above
T4 construct: overlapping 16-mer of human AMHR2-ED; also called p14-29; AMHR2-ED 14-29 16-mer peptide
T4 peptide: GVRGSTKTLGELLDTG
Method: as §1, §2

13-28 = molecular target: T5, 13-28; test: as above
T5 construct: overlapping 16-mer of human AMHR2-ED; also called p13-28; AMHR2-ED 13-28 16-mer peptide
T5 peptide: PGVRGSTKTLGELLDT
Method: as §1, §2

11-26 = molecular target: T6, 11-26; test: as above
T6 construct: overlapping 16-mer of human AMHR2-ED; also called p11-26; AMHR2-ED 11-26 16-mer peptide
T6 peptide: EAPGVRGSTKTLGELL
Method: as §1, §2

15-30 = molecular target: T7, 15-30; test: as above
T7 construct: overlapping 16-mer of human AMHR2-ED; also called p15-30; AMHR2-ED 15-30 16-mer peptide
T7 peptide: VRGSTKTLGELLDTGT
Method: as §1, §2

16-31 = molecular target: T8, 16-31; test: as above
T8 construct: overlapping 16-mer of human AMHR2-ED; also called p16-31; AMHR2-ED 16-31 16-mer peptide
T8 peptide: RGSTKTLGELLDTGTE
Method: as §1, §2

T1 sequence (P10598 16-231 limits assumed): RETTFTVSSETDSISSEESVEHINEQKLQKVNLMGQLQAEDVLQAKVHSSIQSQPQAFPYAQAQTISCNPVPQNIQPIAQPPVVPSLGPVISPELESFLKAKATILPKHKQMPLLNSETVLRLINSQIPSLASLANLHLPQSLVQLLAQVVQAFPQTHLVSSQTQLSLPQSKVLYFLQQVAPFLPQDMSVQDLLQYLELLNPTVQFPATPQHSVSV

binding result (rβ-Casein): no binding (tested: 100 µg/ml)
binding result (17-32): binds
binding result (12-27): binds
binding result (14-29): binds
binding result (13-28): binds
binding result (11-26): binds
binding result (15-30): binds
binding result (16-31): binds
B1: 4D12G1 mAb (antibody, IgG1, V domains shown)
VH: DVKLVESGGGLVKLGGSLKLSCAASGFTFSRYFMSWVRQTPEKRLELVAAINSDGGRTYYPDTVKGRFTISRDNAKNTLYLQMSSLKSEDTALYYCTRHIYSYYEDYFDYWGQGTTLTVSS
VL: DVVMTQTPLSLPVSLGDQASISCRSSQSLVHSNGNTYLHWYLQKPGQSPKLLIYKVSKRFSGVPDRFSGSGSGTDFTLKISRVEAEDLGVYFCSQSTHVYTFGGGTKLEIK
notes: also called 4D12G1 IgG1 mAb

Reference: patent publication US20230078601A1 (CLEVELAND CLINIC FOUNDATION, published 2023)
